Positions count from the first letter of the chain named. In names and notes the source's numbering stands. Bounds are passed on as bounds.

We go through 8 molecules from patent US20230416361A1 (MIROBIO, published 2023).

The target in test [1] is T1, monomeric soluble human CD200R extracellular domain (human, UniProt Q8TD46 29-265).
T1 construct: extracellular domain; also called hCD200R; monomeric CD200R protein
T1 sequence (looked up): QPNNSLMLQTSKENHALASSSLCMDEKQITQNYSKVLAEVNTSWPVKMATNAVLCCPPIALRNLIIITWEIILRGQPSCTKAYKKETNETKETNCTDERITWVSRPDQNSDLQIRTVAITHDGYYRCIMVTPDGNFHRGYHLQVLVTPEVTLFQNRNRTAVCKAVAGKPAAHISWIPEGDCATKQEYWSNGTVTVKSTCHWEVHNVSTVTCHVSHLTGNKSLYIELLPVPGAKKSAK
Nature of the test: SPR, captured antibody, soluble monomeric receptor injected, single cycle kinetics, 37 C. Here is the method:
(§1) The binding affinity and kinetics of the CD200R antibodies of the present disclosure to human or cynomolgus CD200R were determined by surface plasmon resonance (SPR) using the Biacore T200 (GE Healthcare). Mouse antibody capture kit (GE Healthcare) was used to coat a Series S CM5 Sensor Chip (GE Healthcare) with polyclonal anti-mouse IgG.
(§2) Anti-CD200R antibody was captured onto the biosensor surface and a negative control antibody (clone Mopc21; Biolegend) captured in the reference channel. Various concentrations of monomeric soluble human CD200R extracellular domain, soluble cynomolgus macaque CD200R1 extracellular domain or soluble cynomolgus macaque CD200RLa (a highly homologous activating receptor) were injected over the immobilized antibodies in the buffer 10 mM Hepes, 150 mM NaCl, 0.005% v/v Surfactant P20, pH 7.4 (HBS-P) at 37° C., in a single cycle kinetics analysis. Association and dissociation rates were fitted using BiaEvaluation Software (GE Healthcare) after reference and blank subtractions, and dissociation constants were calculated (Table 2).
Background: In SPR one partner is held on a chip, and binding of the other changes the refractive index at the surface.

The target in test [2] is T2, soluble cynomolgus macaque CD200R1 extracellular domain (cynomolgus macaque, UniProt G7NZT0 29-266).
T2 construct: extracellular domain; also called Cynomolgus CD200R
T2 sequence: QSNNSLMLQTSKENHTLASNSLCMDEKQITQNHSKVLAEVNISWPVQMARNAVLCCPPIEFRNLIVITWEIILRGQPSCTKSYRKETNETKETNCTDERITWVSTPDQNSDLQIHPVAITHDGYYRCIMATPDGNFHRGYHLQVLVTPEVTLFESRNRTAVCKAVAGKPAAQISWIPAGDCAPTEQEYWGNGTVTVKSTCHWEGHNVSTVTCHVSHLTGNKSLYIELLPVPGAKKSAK
The test is described as above. Here is the method: as §1, §2

Test [3] deals with T3, extracellular domain of cyno CD200R (SinoBiological 11232-C08H, Met1-Leu267) (cynomolgus, UniProt G7NZT0 25-268).
T3 construct: range 1-267; Bought protein
T3 sequence: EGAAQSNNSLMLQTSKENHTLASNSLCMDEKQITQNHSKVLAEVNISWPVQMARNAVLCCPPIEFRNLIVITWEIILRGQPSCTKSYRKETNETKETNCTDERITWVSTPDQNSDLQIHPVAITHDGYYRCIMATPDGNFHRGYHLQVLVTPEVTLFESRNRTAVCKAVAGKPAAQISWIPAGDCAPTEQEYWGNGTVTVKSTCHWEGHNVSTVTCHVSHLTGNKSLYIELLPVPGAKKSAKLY
Nature of the test: SPR (Biacore), antibody captured by anti-human Fc, CD200R extracellular domain injected, single cycle kinetics, 25 C. Here is the method: This example investigates in vitro CD200R binding of anti-CD200R antibodies by surface plasmon resonance. Surface plasmon resonance binding experiments with purified anti-CD200R antibody (expressed on a hIgG1 isotype with a P238D Fc mutation) were performed using the Biacore T200 and 8K+instruments. Anti-human Fc antibody (Life Technologies H10500) was amine-coupled to a C1 sensor chip using standard amine-coupling chemistry. Residual activated carboxyls were blocked with ethanolamine. Antibodies with a human Fc were then captured on these surfaces.
To assess the binding of hu2131_v20_D56S antibody and variants (antibody hu213l_Q1E and antibody hu2131_Q1E_M99G) to the extracellular domains of human CD200R (Met29-Leu243) and cyno CD200R (SinoBiological 11232-C08H, Metl-Leu267), 10-30 RUs of antibody were captured. CD200R proteins were diluted into running buffer (10 mM HEPES, 150 mM NaCl, 3 mM EDTA, 0.01% Polysorbate 20, pH 7.4 with 0.1 mg/mL BSA) (full-length antibody sequences are disclosed in Table 10). Five three-fold serial dilutions were performed for each CD200R, with highest concentration being 100 nM. Samples were injected using a single cycle kinetics scheme (Karlsson Anal Biochem et al 2006). Data were analyzed using Biacore Insight Evaluation Software and fit to a simple kinetic model, from which kon and koff were obtained to calculate KD using the relationship KD=koff/kon. Experiments were run at 25° C.

Test [4] addresses T1, monomeric soluble human CD200R …. Nature of the test: BLI (Octet), antibody on anti-human Fc probes, monomeric CD200R in solution, 25 C, 1:1 global fit. Here is the method: Humanised variant antibodies combining the different heavy and light variable domains described in Example 6 were produced by transient transfection of HEK293 cells. All antibodies were expressed on a human IgGI isotype with a P238D Fc mutation. The unpurified supernatants were analysed by Protein A-HPLC to determine the antibody concentrations, as a measure of expression yield. […] Binding affinity of humanized variants to human CD200R was assessed by bio-layer interferometry on an Octet R4 instrument. Each antibody was captured directly onto anti-human Fc capture probes (Sartorius 18-5060) for 60 sec followed by baseline setting in assay buffer (DPBS, 0.01% Polysorbate-20). Association of monomeric CD200R protein to immobilised antibodies was measured in 4 different protein concentrations (300, 100, 30 and 10 nM in assay buffer) at 25° C., with an association time of 120s and dissociation of 120s in assay buffer only. A reference probe with no antibody immobilised was used for background subtraction. Kinetic rate constants and binding KDs were calculated using Octet Analysis Studio 12 software. Global curve fitting based on all 4 concentrations using a 1:1 model was performed, from which kon and koff were obtained to calculate KD using the relationship KD=koff/kon.

B1: anti-CD200R antibody clone 2.2.7 (mIgG1k isotype) (antibody, V domains shown)
VH: QVQLKESGPGLVAPSQSLSITCTVSGFSLTSYGVHWVRQLPGKGLEWLGVIWAGGGTNYNSALMSRLSISKDNSKSQVFLKMNRLQTDDTAIYYCAREGLPRAMDYWGQGTSVTVSS
VL: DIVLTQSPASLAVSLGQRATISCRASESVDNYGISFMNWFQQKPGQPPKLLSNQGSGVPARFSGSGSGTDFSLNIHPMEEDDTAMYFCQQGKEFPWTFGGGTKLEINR
notes: Murine hybridoma antibody, IgG1 kappa
As for B1, the Kd (as a rule, the constant that tells how readily two partners part at equilibrium) was found to be 27.6 nM in test [1] and 159 nM in test [2].

B2: Antibody hu2131_Q1E hIgG1k P238D (antibody)
heavy: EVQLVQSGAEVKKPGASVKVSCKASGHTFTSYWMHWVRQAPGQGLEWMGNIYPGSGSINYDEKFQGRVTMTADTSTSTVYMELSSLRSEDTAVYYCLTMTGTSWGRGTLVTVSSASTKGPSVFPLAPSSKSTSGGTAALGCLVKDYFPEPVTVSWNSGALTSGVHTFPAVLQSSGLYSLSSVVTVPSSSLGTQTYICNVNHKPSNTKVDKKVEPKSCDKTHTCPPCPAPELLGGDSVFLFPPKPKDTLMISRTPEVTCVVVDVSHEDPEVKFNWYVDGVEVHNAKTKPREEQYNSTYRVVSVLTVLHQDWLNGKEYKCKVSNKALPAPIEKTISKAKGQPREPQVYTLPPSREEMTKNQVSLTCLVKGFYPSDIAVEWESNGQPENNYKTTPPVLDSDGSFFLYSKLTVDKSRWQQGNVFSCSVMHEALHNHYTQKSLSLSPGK
light: DIQMTQSPSSLSVSVGDRVTITCQASQGTPINLHWFQQKPGKAPKLLISGASNLESGVPSRFSGSGSGTEFTFTISSLQPEDAATYYCLQFTYIPWTFGQGTKLEIKRTVAAPSVFIFPPSDEQLKSGTASVVCLLNNFYPREAKVQWKVDNALQSGNSQESVTEQDSKDSTYSLSSTLTLSKADYEKHKVYACEVTHQGLSSPVTKSFNRGEC
For the molecule B2, in test [3], the dissociation constant (Kd) is at most 0.0392 nM, the koff (usually the rate constant with which the complex falls apart) was at most 1e-05 s⁻¹ and the on-rate (kon) (usually a measure of how fast the partners come together) was found to be 255000 M⁻¹ s⁻¹.

B3: hu2131_v18 (antibody, human IgG1, V domains shown)
VH: QVQLVQSGAEVKKPGASVKVSCKASGHTFTSYWMHWVRQAPGQGLEWMGNIYPGSGSINYDEKFQGRVTMTADTSTSTVYMELSSLRSEDTAVYYCLTMTGTSWGRGTLVTVSS
VL: DVQMTQSPSSLSVSVGDRVTITCQASQGTPINLHWFQQKPGKAPKLLISGASNLEDGVPSRFSGSRYGTDFTFTISSLQPEDIATYFCLQFTYIPWTFGQGTKLEIK
notes: Expressed as human IgG1 with P238D Fc mutation
Regarding B3, in test [4], the dissociation constant (Kd) is 0.0344 nM.

B4: hu2131_v19 (antibody, human IgG1, V domains shown)
VH: B3 VH
VL: B3 VL with V2I, R66G, Y67S, F87Y
notes: as for B3
In the case of B4, binding in test [4] was characterised by a dissociation constant (Kd) of 0.00423 nM.

B5: Antibody I-4P (antibody, human IgG4 S228P, kappa, V domains shown)
VH: QVQLVQSGAEVKKPGASVKVSCKASGFSFSSGYYMAWVRQAPGQGLEWMGLIGVGSGSLWYAQKFQGRVTMTRDTSTSTVYMELSSLRSEDTAVYYCARHFALSDPFNLWGQGTLVTVSS
VL: EIVLTQSPDFQSVTPKEKVTITCQASESIDSYLLWYQQKPDQSPKLLIKQASTLASGVPSRFSGSGSGTDFTLTINSLEAEDAATYYCQNYYDISSNDFGGGTKVEIKR
notes: also called AbI-4P; J-4P
In test [4], B5 yielded a Kd of 2.16 nM.

B6: anti-CD200R antibody clone 26.1.2 (mIgG1k isotype) (antibody, V domains shown)
VH: EVQLQQSGPELVKPGASVKMSCKASGYTFTSYVMHWVKQKPGQGLEWIGYIHPYNDDIKHNEKFKDKATLTSAKSSSTVYMELSSLTSEDSAVYYCAREEYYGSRFAYWGQGTLVTVSA
VL: DIVLTQSPASLAVSLGQRATISCRASKSVRTSGYSYLHWYQQKPGQPPKLLIYLASNLESGVPARFSGSGSGTDFTLNIHPVEEEDAATYYCQYSGELPFTFGGGTKLEIKR
notes: as for B1
On to B6, for which the values for the equilibrium dissociation constant (Kd) in test [1] and in test [2] were 0.7 nM and 60 nM, respectively.

B7: anti-CD200R antibody clone 3.10.2 (mIgG1k isotype) (antibody, V domains shown)
VH: QVQLQQPGSELVRPGASVKLSCKASGYTFTSYWMHWVKQRPGQGLEWIGNIFPGSDTTNYDEKFKSKAIMTVDISSSTVYMHLSSLTSEDSAVYYCITYTGAYWGQGTLVTVSA
VL: DVQMIQSPSSLSASMGDIVTMTCQASQGTNINLHWFQQKPGKAPKLLISGGSNLEDGVPSRFSGSRYGTDFTLTISSLEDEDMATYFCLQFTYLPWTFGGGTKLDIKR
notes: as for B1
For the molecule B7, the Kd in test [1] is 0.4 nM; in test [2], 0.0015 nM.

B8: anti-CD200R antibody clone 7.12.2 (mIgG1k isotype) (antibody, V domains shown)
VH: QVQLQQPGSELVRPGASVKLSCKASGYTFTSYWMHWVKQRPGQGLEWIGNIYPGSGTTNYDEKFKSKATLTVDTSSSTAYMQISSLTSEDSAVYYCTTGTSTYWGQGTLVTVSA
VL: B7 VL with M15L, N30S, H34N, S49Y, G51A, S52V, I75V, F91H, D105E
notes: as for B1
Turning to B8, the Kd in test [1] is 2.9 nM; in test [2], 0.708 nM.
